Assay results published in patent US20200157237A1 (BROAD INSTITUTE, published 2020).

T1: Il12rb1 (mouse, UniProt Q60837 20-738)
T1 construct: whole, on cells; Tie to CD5L:p40 rests on loss of staining and of effect in knockout cells; also called Ilrb1
T1 sequence (looked up): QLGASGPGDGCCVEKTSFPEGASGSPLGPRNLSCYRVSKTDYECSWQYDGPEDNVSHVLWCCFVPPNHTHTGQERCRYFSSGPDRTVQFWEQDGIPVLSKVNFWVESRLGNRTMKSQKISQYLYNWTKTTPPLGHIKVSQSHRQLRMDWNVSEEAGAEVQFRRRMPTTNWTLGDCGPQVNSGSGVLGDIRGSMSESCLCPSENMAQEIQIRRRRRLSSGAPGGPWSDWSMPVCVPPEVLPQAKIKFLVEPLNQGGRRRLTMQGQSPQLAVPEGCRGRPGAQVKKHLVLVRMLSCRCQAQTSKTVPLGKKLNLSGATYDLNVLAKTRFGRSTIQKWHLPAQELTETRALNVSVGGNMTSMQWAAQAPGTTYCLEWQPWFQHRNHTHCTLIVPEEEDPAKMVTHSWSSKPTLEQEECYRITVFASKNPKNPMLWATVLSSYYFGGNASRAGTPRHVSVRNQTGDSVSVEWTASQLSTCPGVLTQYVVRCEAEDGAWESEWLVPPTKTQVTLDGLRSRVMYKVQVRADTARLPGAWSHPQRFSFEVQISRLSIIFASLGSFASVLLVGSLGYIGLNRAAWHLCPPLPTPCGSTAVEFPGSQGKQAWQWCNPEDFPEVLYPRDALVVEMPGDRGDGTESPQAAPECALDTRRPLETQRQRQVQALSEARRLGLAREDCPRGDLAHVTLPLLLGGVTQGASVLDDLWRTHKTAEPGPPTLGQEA

B1: recombinant CD5L monomer with His tag (mCD5L construct) (ligand)
chain: ESPTKVQLVGGAHRCEGRVEVEHNGQWGTVCDDGWDRRDVAVVCRELNCGAVIQTPRGASYQPPASEQRVLIQGVDCNGTEDTLAQCELNYDVFDCSHEEDAGAQCENPDSDLLFIPEDVRLVDGPGHCQGRVEVLHQSQWSTVCKAGWNLQVSKVVCRQLGCGRALLTYGSCNKSTQGKGPIWMGKMSCSGQEANLRSCLLSRLENNCTHGEDTWMECEDPFELKLVGGDTPCSGRLEVLHKGSWGSVCDDNWGEKEDQVVCKQLGCGKSLHPSPKTRKIYGPGAGRIWLDDVNCSGKEQSLEFCRHRLWGYHDCTHKEDVEVICTDFDVTGHHHHHHH
notes: Made by Biolegend in 293E cells, purified on Ni Sepharose and Superdex S200 (monomer fraction); also called soluble CD5L; sCD5L
B2: recombinant CD5L:p40 heterodimer (genetically linked mouse p40-linker-CD5L with His tag) (ligand)
chain: MWELEKDVYVVEVDWTPDAPGETVNLTCDTPEEDDITWTSDQRHGVIGSGKTLTITVKEFLDAGQYTCHKGGETLSHSHLLLHKKENGIWSTEILKNFKNKTFLKCEAPNYSGRFTCSWLVQRNMDLKFNIKSSSSSPDSRAVTCGMASLSAEKVTLDQRDYEKYSVSCQEDVTCPTAEETLPIELALEARQQNKYENYSTSFFIRDIIKPDPPKNLQMKPLKNSQVEVSWEYPDSWSTPHSYFSLKFFVRIQRKKEKMKETEEGCNQKGAFLVEKTSTEVQCKGGNVCVQAQDRYYNSSCSKWACVPCRVRSGGGSGGGSGGGSGGESPTKVQLVGGAHRCEGRVEVEHNGQWGTVCDDGWDRRDVAVVCRELNCGAVIQTPRGASYQPPASEQRVLIQGVDCNGTEDTLAQCELNYDVFDCSHEEDAGAQCENPDSDLLFIPEDVRLVDGPGHCQGRVEVLHQSQWSTVCKAGWNLQVSKVVCRQLGCGRALLTYGSCNKSTQGKGPIWMGKMSCSGQEANLRSCLLSRLENNCTHGEDTWMECEDPFELKLVGGDTPCSGRLEVLHKGSWGSVCDDNWGEKEDQVVCKQLGCGKSLHPSPKTRKIYGPGAGRIWLDDVNCSGKEQSLEFCRHRLWGYHDCTHKEDVEVICTDFDVTGHHHHHHHHGGQ
notes: also called mCD5L:p40; rCD5L:p40

Legend:
[1] = target: the molecule itself; assay: purification of recombinant CD5L (FIG. 8A)
[2] = target: T1, Il12rb1; assay: flow cytometry, His-tagged CD5L:p40 and anti-His antibody on T cells of wildtype or Il12rb1KO mice (FIG. 56A)
From the text: FIG. 56A-F—Recombinant CD5L:p40 can bind to Th17 cells directly and alters T cell signaling pathways and metabolism. A) recombinant CD5L:p40 (his-tagged) were used to stain pathogenic Th17 cells (IL-1b+IL-6+IL-23),Th1 cells (IL-12) or Th0 cells differentiated from naïve T cells isolated from wildtype or Il12rb1KO mice followed by anti-His antibodies and analysis by flow cytometry. B-D) As Stat3 and Stat4 regulate IL-17 responses, we analyzed pStat3 and pStat4 expression. B-C) CD5L:p40 suppresses pStat3. 28 nM recombinant CD5L:p40 were used to stimulate naïve T cells in the presence of 10 ug/ml of anti-CD3 antibodies (TCR) with or without other indicated cytokines (B) or to stimulate Th17p cells (C) and cells were harvested for phosphoflow preparation and analysis of pStat3 at the indicated time points. D) CD5L:p40 suppresses pStat4 but not pTyk2. Western blotting analysis of pStat4 and pTyk2 expression by Th17p cells (equal protein loaded per lane) differentiated from naïve T cells isolated from wildtype mice and subjected to stimulation by either control (C), CD5L monomer (L), CD5L homodimer (LL), CD5L:p40 (L4) or p40:p40 homodimer (44) for the indicated time. E) CD5L:p40 suppresses pRictorY, pS6 and p38. To study whether CD5L:p40 influence other signaling pathways, we analysed several other phospho-proteins as indicated. […]

| Binder | binding result [1] | binding result [2] |
| --- | --- | --- |
| B1 | binds |  |
| B2 |  | binds |
